Results from the supplement of paper PMC10567573.
± gives the standard deviation.

Test: protein stability index of a GFP-peptide fusion (GPS, HEK-293T) (PSI 1-6); higher = more stable
[1] = treatment: DMSO, c terminus: a fixed tail appended
[2] = treatment: MLN4924 1 uM, 8 h, c terminus: a fixed tail appended
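Note: 24-mer peptide tiles fused after GFP, lentivirally expressed, FACS-sorted into six equal bins by GFP/DsRed ratio, decoded by Illumina sequencing, PSI is the read-weighted mean bin number.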

Sequence | protein stability index [1] | protein stability index [2] | protein stability index (treatment: DMSO, c terminus: native) | protein stability index (treatment: MLN4924 1 uM, 8 h, c terminus: native)
LQRGEALSALDSKANNLSSLSKKY [SEC22B] | 4.46 ± 0.11 | 4.34 ± 0.23 | – | –
AANLPALVLKIMSGTFAPISDRYS [NEK8] | 3.08 ± 0.27 | 2.9 ± 0.56 | – | –
PSGHSDAQTLAMMLQEQLDAINEE [PPFIA4] | 4.94 ± 0.44 | 4.46 ± 0.21 | – | –
LADYLVPILAPRIFGSNKWTTEQQ [ARL6IP1] | 2.34 ± 0.49 | 2.16 ± 0.16 | – | –
QKLNVFKNFIGLLQNQNFPYPVLF [NLN] | 2.89 ± 1.1 | 2.76 ± 0.46 | – | –
SNPLAREIFRRHFRQLCYQETPGP [ZSCAN9] | 2.28 ± 0.039 | 2.52 ± 0.097 | – | –
NVEDASHEEVVEKVKKSGSRVMFL [PDZK1] | 4.45 ± 0.2 | – | – | –
PEAEENKQIIRKHAQTFVALCATD [CCND1] | 3.4 ± 0.73 | 3.81 ± 0.71 | – | –
HSVLQIRYSGKILKNNETLVQHGV [IQUB] | 2.09 ± 0.035 | 2.31 ± 0.28 | – | –
VAELFCRRCRRCVCALCPVLGAHR [TRIM14] | 2.25 ± 0.1 | 2.49 ± 0.39 | – | –
IIVRTTNKKYYKKFSIPDLDRHQL [DPCD] | 2.29 ± 0.55 | 2.14 ± 0.29 | – | –
NLQSLKTPTLKVFMHENLYFTNRK [DCAF4] | 2.73 ± 0.26 | 2.65 ± 0.2 | – | –
VIRWIAHDTEIRKVHMKDVMSALW [GAN] | 2.38 ± 0.63 | 2.08 ± 0.2 | – | –
SEDNTSFDRKKKSISLMYGGSKRK [SLA] | 4.66 ± 0.26 | 4.91 ± 0.27 | – | –
THEVMGPKKKHLDYLIQATNETNV [SNAP91] | 3.85 ± 0.32 | 3.69 ± 0.64 | – | –
VVGNWQYFFPVIFSKASSSLQLVF [MAGEA3] | 3.28 ± 0.46 | 3.11 ± 0.55 | – | –
EDIALNKHRSRRKWCFWNSSPAVA [RHOBTB1] | 2.31 ± 0.22 | 2.28 ± 0.23 | – | –
TSDDNLLKNIELFDKLALRFHGRL [KCTD13] | 2.48 ± 0.2 | 2.46 ± 0.4 | – | –
PWERAMGVDPQQKMELGIDLLAYG [MYOZ1] | 2.97 ± 0.28 | 2.94 ± 0.13 | – | –
TLSPHQYHSVHGVGMVPEWSDNS [TBX5] | – | – | 4.01 ± 0.29 | 3.8 ± 0.14
PVDPDSQADTVHSNPELDVLLLGS [DNAAF3] | 4.95 ± 0.11 | 5 ± 0.19 | – | –
VFLASGAVSVMKKCRKLEDPQSSS [SLC19A2] | 2.81 ± 0.043 | 2.98 ± 0.15 | – | –

Sequence | protein stability index [1] | protein stability index [2] | protein stability index (treatment: DMSO, c terminus: native) | protein stability index (treatment: MLN4924 1 uM, 8 h, c terminus: native)
MIRESETKKGFYSLSVRHRQVKHY [SLA] | 2.59 ± 0.44 | 2.94 ± 0.13 | – | –
REDQLDTVLAVLEDSSRDIREALH [INTS4] | 4.21 ± 0.36 | 4.38 ± 0.34 | – | –
TREAVTEILGIEPDREKGFHLDVE [TSN] | 4.62 ± 0.063 | 4.64 ± 0.12 | – | –
LLAWRCTKLSLLAIHGYTVWAHNL [FBXO33] | 3.15 ± 0.21 | 3.13 ± 0.34 | – | –
DFLIHPPERSDLTLYLIVALATVS [PCDHGC5] | 2.75 ± 0.41 | 2.44 ± 0.25 | – | –
MIIVAISPKYKQDVEGAESQLDED [TRAF3IP2] | 2.52 ± 0.14 | 2.26 ± 0.25 | – | –
WAQLEAPARLLLQALQAGPEGARR [FANCE] | 2.78 ± 0.37 | 3.08 ± 0.29 | – | –
AEYYRLHLEGYHGTAGDSMSYHSG [TNXB] | 3.09 ± 0.83 | 2.96 ± 0.43 | – | –
SFMLQDRAKGLLGTTVTFDDLMGI [FEM1C] | 2.49 ± 0.24 | 2.66 ± 0.14 | – | –
PHQCSECGRAFSRKSLLVVHQRTH [ZNF649] | 4.93 ± 0.2 | 5.12 ± 0.16 | – | –
PGSFWGLCQVAQEALASAGASCCG [VENTX] | 2.41 ± 0.4 | 2.54 ± 0.22 | – | –
ALRQSVEADINGLRRVLDELTLSK [KRT13] | 3.08 ± 0.2 | 3.09 ± 0.26 | – | –
EACGRCEEVPEAYVDIHTGLSGSG [PYCR3] | 4.29 ± 0.67 | 4.57 ± 0.11 | – | –
ISLWPREPPPKSGPSLVPGKTPTV [CD207] | 3.06 ± 0.18 | 3.43 ± 0.084 | – | –
YVALQTKGALQKKPLYVAFSFMYI [KCNK9] | 3.44 ± 0.89 | 2.85 ± 0.8 | – | –
AWFGFAGTPGYLSPEVLRKDPYGK [CAMK2A] | 2.46 ± 0.2 | 2.88 ± 0.34 | – | –
VEMDIYTALKKWMFLQLVPSWNGS [GMCL1] | 2.65 ± 0.092 | 2.66 ± 0.65 | – | –
SIKKKFLKRKGKTDSPWIKPARKR [EHMT1] | 3.66 ± 0.082 | 3.71 ± 0.17 | – | –
KRQVPTEQARAYAEKNCMTFFEVS [RAB40C] | 3.16 ± 0.36 | 3.29 ± 0.37 | – | –
FKHILRTEGAFGLYRGLAPNFMKV [SLC25A25] | 2.18 ± 0.31 | 2.29 ± 0.32 | – | –
GGGFGGGSCQLGGGRGVSTCSTRF [KRT13] | 3.5 ± 0.17 | 3.59 ± 0.21 | – | –
FSAYIDSMAAVPTLELCHDELFAD [CEBPD] | 3.29 ± 0.37 | 3.1 ± 0.3 | – | –

Sequence | protein stability index [1] | protein stability index [2] | protein stability index (treatment: DMSO, c terminus: native) | protein stability index (treatment: MLN4924 1 uM, 8 h, c terminus: native)
LGSKHKVCMDLRANLKQVKKEDTE [TNNI2] | 4.76 ± 0.16 | 4.94 ± 0.23 | – | –
ELPSALESHEVPGTLSMGVPQIFK [ZNF24] | 4.07 ± 0.12 | 4.11 ± 0.13 | – | –
VWMLMLLLAVPNIILTNQSVREVT [P2RY14] | 3.27 ± 0.3 | 2.96 ± 0.46 | – | –
AMCVGCGSQIHDQFILRVSPDLEW [ISL2] | 2.18 ± 0.36 | 2.16 ± 0.21 | – | –
TPFQSVPPTVSQTPVIAATPVPTI [BRD3] | 4.06 ± 0.24 | 3.94 ± 0.13 | – | –
CFVLFSLTHTHTHTPNHRGINCFF [ANKRD44] | 2.66 ± 0.032 | 2.82 ± 0.5 | – | –
NNMNAVNLFFAWIKIFKYISFNKT [PKD2L1] | 2.81 ± 0.46 | 2.58 ± 0.54 | – | –
ISEAFSQRVGFGDDFDEDELMAEL [CHMP4C] | 4.86 ± 0.32 | 5.07 ± 0.2 | – | –
ARRQHLKSVMLQIAATELEKEESR [TNNI2] | 4.31 ± 0.23 | 4.36 ± 0.33 | – | –
AVIDSEKDMNFLKRYAGREEHWVG [CD69] | 2.72 ± 0.39 | 3.08 ± 0.29 | – | –
IGMPFNQLGTLAGSKYYNVEAMYC [SMG5] | 2.36 ± 0.51 | 2.27 ± 0.3 | – | –
TNSTPLRAACFDGHLEVVRYLVGE [FEM1A] | 2.32 ± 0.18 | 2.4 ± 0.31 | – | –
TAHLYSLLQTQHALGDAFADLSQK [ARFIP2] | 2.18 ± 0.25 | 2.22 ± 0.23 | – | –
YKKIYFCHSCQLYLPSTEFSVSST [IQUB] | 2.39 ± 0.23 | 2.08 ± 0.22 | – | –
FEEFLVMMVRQMKEDAKGKSEEEL [TNNC2] | 3.48 ± 0.37 | 3.28 ± 0.35 | – | –
QMTPTNLAVCLAPSLFHLNTLKRE [DLC1] | 2.79 ± 0.044 | 2.53 ± 0.036 | – | –
GKLKAPPKPCAGNQGTQITVEDLF [MLH1] | – | 3.65 ± 0.42 | – | –
RCIGVTKPIFHSTKITSKHVKMML [PTGFR] | 2.13 ± 0.27 | 2.15 ± 0.28 | – | –
RKLNSRLFVIRGQPADVFPRLFKE [CRY1] | 2.27 ± 0.38 | 2.09 ± 0.39 | – | –
THLLMGLASGRIILILEGGYNLTS [HDAC6] | 2.89 ± 0.46 | 3.02 ± 0.58 | – | –
TRFTEEYQLFEELGKGAFSVVRRC [CAMK2A] | 2.63 ± 0.39 | 2.54 ± 0.26 | – | –
KKRFTRRSHLIGHQRTHSEEETYK [ZNF449] | 4.12 ± 0.42 | 4.23 ± 0.46 | – | –
